Experimental data taken from article PMC7101311 (Nature Communications, 2020).

B1: PCNA (proliferative cell nuclear antigen) from Pyrococcus abyssi (natural protein, UniProt Q9UYX8 1-249, looked up)
chain: MPFEIVFEGAKEFAQLIETASRLIDEAAFKVTEEGISMRAMDPSRVVLIDLNLPASIFSKYEVDGEETIGVNMDHLKKVLKRGKAKETLILRKGEENFLEISLQGTATRTFKLPLIDVEEIEVDLPELPFTAKVVILGDVIKEAVKDASLVSDSMKFIAKENEFTMRAEGETQEVEVKLTLEDEGLLDIEVQEETKSAYGISYLSDMVKGLGKADEVTIKFGNEMPMQMEYYIRDEGRLIFLLAPRVEE
notes: PCNA, Pyrococcus abyssi; open reading frame optimized and synthesized, in pET28-a(+) with a thrombin-cleavable N-terminal 6xHis tag; PCNA as used in cryo-EM, crystallisation, BLI (analyte) and primer extension; also called sliding clamp; source: E. coli BL21-CodonPlus (DE3)-RIPL, purified (heat step, HisTrap, heparin, size exclusion)

Assays:
[1] = molecular target: primase (Saccharomyces cerevisiae) (UniProt P10363); details: cited from earlier work
[2] = molecular target: the molecule itself; experiment: cryo-EM structure; 0.4 µM PolD (DP1 H451A), 1.2 µM PCNA, 0.7 µM primed DNA duplex (18-mer primer, 7-nt overhang), 0.1 mM dAMPCPP, buffer F (20 mM Na-Hepes pH 8, 0.01 mM NaCl, 2 mM Mg-acetate), 20 min at 4 °C; single-particle cryo-EM, 3.77 Å
[3] = molecular target: B1; experiment: BLI; Octet RED384; His-MBP-fused DP2 constructs captured on Ni-NTA biosensors (1.5 nm); PCNA or PriS-PriL(1–210) 31.25-2000 nM, 300 s, 25 °C, buffer E (20 mM Na-Hepes pH 8, 0.15 M NaCl) with 0.2 mg/mL BSA; steady-state fit; details: both partners purified
[4] = molecular target: T1, His6-tagged PCNA from Pyrococcus abyssi (Pyrococcus abyssi, UniProt Q9UYX8 1-249); experiment: SPR; Biacore T200; ~2000 RU His-tagged PCNA and PriS-PriL(1–210) on an NTA chip, His-tagged MBP as reference; cPIP peptide 0-200 µM, 30 s at 30 µL/min, 25 °C, buffer E with 100 µM EDTA; steady-state fit; details: both partners purified
T1 construct: PCNA, Pyrococcus abyssi; open reading frame optimized and synthesized, in pET28-a(+) with a thrombin-cleavable N-terminal 6xHis tag; PCNA with its His tag kept, captured on the NTA chip for SPR; also called His-tagged PCNA; source: E. coli BL21-CodonPlus (DE3)-RIPL, purified (heat step, HisTrap, heparin, size exclusion); not shown: His6, N-terminal, kept
T1 sequence (looked up): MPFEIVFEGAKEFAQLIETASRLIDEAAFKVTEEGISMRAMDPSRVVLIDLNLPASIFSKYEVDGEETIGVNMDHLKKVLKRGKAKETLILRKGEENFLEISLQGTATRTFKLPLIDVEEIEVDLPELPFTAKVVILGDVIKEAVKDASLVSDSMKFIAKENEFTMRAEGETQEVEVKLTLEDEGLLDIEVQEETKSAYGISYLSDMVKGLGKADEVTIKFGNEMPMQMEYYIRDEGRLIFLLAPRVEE

[5] = molecular target: PolD DP1 (small subunit, exonuclease-deficient);PolD DP2 (large catalytic subunit);PCNA (Pyrococcus abyssi;Pyrococcus …, UniProt Q9V2F3;PDB:6T8H_3;Q9UYX8 1-619;1-1275;1-249, H451A||); experiment: cryo-EM structure (3.77 A); 2 mM Mg-acetate, 0.1 mM dAMPCPP (incoming nucleotide not seen in the map); Cryo-EM sample: 0.4 uM PolD, 1.2 uM PCNA, 0.7 uM DNA, 20 mM Na-HEPES pH 8, 0.01 mM NaCl (so in the source), 2 mM Mg-acetate, 0.1 mM dAMPCPP, 20 min at 4 C; details: protein: recombinant;recombinant;recombinant; copies: 1;1;3; 5' overhang 7 nt on template strand (18 bp duplex)
Chain of PolD DP1 (small subunit, exonuclease-deficient);PolD DP2 (large catalytic subunit);PCNA (Q9V2F3 whole entry H451A, one chain of several): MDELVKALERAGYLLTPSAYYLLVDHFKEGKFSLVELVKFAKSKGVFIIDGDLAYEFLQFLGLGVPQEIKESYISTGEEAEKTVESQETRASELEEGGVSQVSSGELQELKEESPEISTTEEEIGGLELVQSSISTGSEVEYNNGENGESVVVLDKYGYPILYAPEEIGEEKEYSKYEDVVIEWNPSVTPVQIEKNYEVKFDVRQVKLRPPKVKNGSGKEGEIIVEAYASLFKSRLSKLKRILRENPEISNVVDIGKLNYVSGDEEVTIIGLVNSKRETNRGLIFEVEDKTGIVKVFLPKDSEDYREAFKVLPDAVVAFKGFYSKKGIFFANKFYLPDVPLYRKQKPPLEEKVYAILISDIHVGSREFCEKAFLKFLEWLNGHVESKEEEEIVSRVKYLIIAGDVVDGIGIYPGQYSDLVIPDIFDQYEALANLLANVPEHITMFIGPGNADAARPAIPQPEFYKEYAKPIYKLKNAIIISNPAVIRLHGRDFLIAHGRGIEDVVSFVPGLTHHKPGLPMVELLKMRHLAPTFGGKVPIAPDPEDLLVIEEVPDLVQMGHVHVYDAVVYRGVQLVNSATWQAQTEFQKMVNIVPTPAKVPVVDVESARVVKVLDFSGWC

Chain of primase (Saccharomyces cerevisiae) (P10363 whole entry, chain 1 of 2): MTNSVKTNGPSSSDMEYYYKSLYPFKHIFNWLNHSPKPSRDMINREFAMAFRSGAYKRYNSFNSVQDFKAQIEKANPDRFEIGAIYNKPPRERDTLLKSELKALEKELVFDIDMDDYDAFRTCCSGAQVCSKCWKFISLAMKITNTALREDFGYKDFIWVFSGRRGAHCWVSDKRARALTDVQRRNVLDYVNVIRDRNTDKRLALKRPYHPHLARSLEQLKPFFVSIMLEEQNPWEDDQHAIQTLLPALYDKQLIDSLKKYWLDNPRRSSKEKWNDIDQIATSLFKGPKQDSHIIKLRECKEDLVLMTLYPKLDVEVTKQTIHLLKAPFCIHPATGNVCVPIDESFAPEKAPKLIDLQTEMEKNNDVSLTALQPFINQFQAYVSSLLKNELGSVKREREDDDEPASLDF
Chain of primase (Saccharomyces cerevisiae) (P20457 whole entry, chain 2 of 2, further chain): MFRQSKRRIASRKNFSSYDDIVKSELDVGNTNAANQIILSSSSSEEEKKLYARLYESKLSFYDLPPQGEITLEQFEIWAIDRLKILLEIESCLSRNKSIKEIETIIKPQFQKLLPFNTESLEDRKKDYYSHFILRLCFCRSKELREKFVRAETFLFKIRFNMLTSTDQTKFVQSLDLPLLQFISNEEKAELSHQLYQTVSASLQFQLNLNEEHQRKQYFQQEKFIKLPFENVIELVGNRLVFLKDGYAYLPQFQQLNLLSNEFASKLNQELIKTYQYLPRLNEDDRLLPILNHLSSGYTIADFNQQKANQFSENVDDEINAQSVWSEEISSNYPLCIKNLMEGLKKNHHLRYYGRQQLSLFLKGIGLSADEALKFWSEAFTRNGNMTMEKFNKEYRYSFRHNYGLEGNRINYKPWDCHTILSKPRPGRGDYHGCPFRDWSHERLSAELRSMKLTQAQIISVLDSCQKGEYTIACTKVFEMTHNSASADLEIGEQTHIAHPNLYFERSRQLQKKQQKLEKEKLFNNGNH

In the case of “DNA polymerase alpha C-terminus (from UniProt P13382)”, the Kd [1] is listed as 245 nM.

In the case of B1, the “stoichiometry N” value [2] is reported as 3.

B2: MBP–iPIP-cPIP fusion (DP2:1196–1270) (domain or fragment, Pyrococcus abyssi, UniProt Q9V2F4 1381-1455, looked up)
chain: ETQLTLIVNPNDICQRLVMARTGEVNKSGLLENLSNGSKKTEKAEKAEKPRKKSDEKPKKKRVISLEEFFSRKSK
notes: C-terminal region of PolD DP2, Pyrococcus abyssi, residues 1196-1270, holding iPIP and cPIP; pIVEX His-MBP-TEV plasmid; TEV-cleavable N-terminal His6-MBP tag, kept for capture on Ni-NTA biosensors; also called His-MBP-fused DP2 construct; source: E. coli BL21-CodonPlus (DE3)-RIPL, purified (HisTrap, heparin, size exclusion; no heat step); not shown: His6, N-terminal, kept; MBP, N-terminal, kept
With B2 the Kd [3] was 472 ± 120 nM.

B3: cPIP peptide (12 amino-acid peptide mimicking the DP2 C-terminal PIP-box) (peptide)
peptide: KKRVISLEEFFS
notes: C-terminal PIP-box (cPIP) of PolD DP2, Pyrococcus abyssi; limits worked out from the printed residues V1258, I1259, L1261, F1264; also called canonical PIP-box; source: synthetic peptide (Smart Bioscience)
Work on B3 yielded a Kd [4] of 49000 ± 4000 nM.

B4: primer-template duplex (18-mer primer / 25-mer template) (dsDNA)
DNA 1: CGCCGGGCCGAGCCGTGC
DNA 2: AGGTCGTGCACGGCTCGGCCCGGCG
B4: binds [5].
